Residue numbers refer to the chain shown, from its start. Names may count otherwise. “Also recorded” adds a separate entry of the source. Values belong to the molecule of their own block, whether it stands above or below them.
Assays:
[1] = test system: CggR R250A (Bacillus subtilis); test: EMSA; details: 20 mM FBP; 35 nM DNA, 2 or 4 uM CggR, 10 mM Na3PO4 pH 7.8, 100 mM NaCl, 1 mM EDTA, 1 mM DTT, 5% glycerol, 1 ug salmon sperm DNA, 20 min room temperature; 5% native PAGE …
[2] = test system: CggR wild type (Bacillus subtilis); test: EMSA; details: 20 mM FBP; 35 nM DNA, 2 or 4 uM CggR, 10 mM Na3PO4 pH 7.8, 100 mM NaCl, 1 mM EDTA, 1 mM DTT, 5% glycerol, 1 ug salmon sperm DNA, 20 min room temperature; 5% native PAGE …
[3] = molecular target: T1, wild-type CggR (Bacillus subtilis, UniProt O32253); test: Thermal shift assay of purified CggR with SYPRO Orange and 0-36 mM FBP (20 to 99 °C in 0.5 °C steps, NaCl counter-ion controls), no DNA; KD from fitting Tm data to a simple cooperative binding model in GraphPad.
T1 sequence (O32253 1-340): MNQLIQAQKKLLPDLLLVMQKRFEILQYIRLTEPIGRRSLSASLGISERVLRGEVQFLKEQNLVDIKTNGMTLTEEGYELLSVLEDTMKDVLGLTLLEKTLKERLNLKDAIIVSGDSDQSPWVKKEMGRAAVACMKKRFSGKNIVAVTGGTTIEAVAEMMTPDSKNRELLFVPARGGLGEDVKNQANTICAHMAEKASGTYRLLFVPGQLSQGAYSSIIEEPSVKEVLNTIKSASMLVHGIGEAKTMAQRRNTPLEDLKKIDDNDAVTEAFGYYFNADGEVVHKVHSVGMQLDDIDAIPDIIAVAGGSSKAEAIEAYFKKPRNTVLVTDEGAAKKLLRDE
Description: We generated these CggR mutants with site‐directed mutagenesis, expressed in E. coli, purified, and biochemically characterized them. To this end, we used thermal shift assays to assess protein stability and ligand binding.
Figure 5 Biochemical characterization of CggR and respective mutants • Thermal shift assays were used to determine the melting curves of wild‐type CggR and mutants. Error bars correspond to the standard deviation of at least five replicates. • CggR‐FBP affinity constants (KD's) of the wild type and mutant variants, determined by fitting a simple cooperative binding model to the melting curves data. Error bars indicate the 95% confidence intervals. • Quantification of CggR binding to DNA. The CggR bound to DNA fraction was calculated by dividing the intensity of the protein–DNA complex band by the total DNA. The background‐subtracted total intensities of the CggR–DNA complex and the free‐DNA bands were assessed with ImageJ. Error bars correspond to the standard deviation of three replicate experiments for the mutants and six for the wild type. • Summary of the biochemical characterization of the wild type and mutant CggR variants. […]
(§1) The K D of the wild type and mutant CggR variants was calculated by fitting the T m data into a simple cooperative model using the GraphPad software.

[4] = test system: DNA fragments containing the CggR operator sites; test: Electrophoresis mobility shift assay: CggR binding to DNA; details: for DNA binding affinity: desired/undesired sign / DNA binding affinity: Fig 5D; for DNA binding affinity: compared with wild type; for CggR binding to DNA in the absence of FBP: 0 mM FBP, Fig 5C; as to DNA binding affinity: desired/undesired sign: key: +: A plus sign indicates desired characteristics achieved in the mutants; -: a minus sign indicates undesired effects of the mutations
Description: Fluorescently labeled DNA fragments were generated by hybridization of single‐stranded forward (labeled with Alexa Fluor 647 at the 5′ end) and reverse (unlabeled) oligonucleotides containing the CggR operator sites. The hybridization protocol and respective hybridization efficiency control were performed as described elsewhere (Bley Folly et al, 2018).
Hybridized labeled DNA fragments (final concentration 35 nM) were incubated 20 min at room temperature with 2 or 4 μM of the purified wild type or mutant CggR variants, in the presence of different concentrations of FBP (0; 0.5; 1; 2.5; 5; 10; and 20 mM) in a final volume of 25 μl in binding buffer (10 mM Na3PO4 pH 7.8, 100 mM NaCl, 1 mM EDTA, 1 mM DTT, 5% glycerol) including 1 μg of salmon sperm DNA. The sample mixtures were loaded in a 5% native polyacrylamide gel and run in native conditions in the dark with constant voltage (200V) at 4°C for 2 h.
Fluorescence was imaged using the Typhoon 9400 (Amersham Biosciences, UK) with the excitation set to 650 nm and the emission set to 655 nm. The background‐subtracted total intensities of the protein–DNA complex and the free‐DNA bands were assessed using ImageJ (Abràmoff et al, 2004), and bound DNA/total DNA was calculated by dividing the intensity of the protein–DNA complex band by the total DNA (i.e., the sum of the signal from the protein–DNA complex band plus the one from free DNA).

[5] = Thermal shift assay: protein stability (melting temperature) of CggR variants; details: for Protein stability: desired/undesired sign / Protein stability: Fig 5D; for Protein stability: compared with wild type
Description: A sample mixture of 25 μl final volume containing 5 μl of 5× SYPRO Orange (Molecular Probes; Eugene, OR), 0.2 mg of the purified CggR, and different concentrations of the FBP metabolite (0; 0.01; 0.1; 0.5; 0.75; 1; 2.5; 10; 20; and 36 mM) was prepared on ice. Control experiments were performed to test the effect of the counter ion NaCl present in FBP salt solutions. Here, the NaCl was added instead of FBP to a final concentration threefold higher than the FBP itself (0; 0.03; 0.3; 1.5; 2.25; 3; 7.5; 30; 60; and 108 mM).
Sample mixtures were transferred into 96‐well PCR plates (Bio‐Rad, CA, USA), sealed with Optical‐Quality Sealing Tape (Bio‐Rad, CA, USA), and analyzed in a CFX96 Real‐Time System combined with C1000 Touch Thermal Cycler (Bio‐Rad, CA, USA). Analysis consisted of a single heating cycle from 20 to 99°C with increments of 0.5°C steps, followed by fluorescence intensity monitoring with a charge‐coupled device camera. The wavelengths for excitation and emission were 490 and 575 nm, respectively. The melting temperature (T m) was automatically calculated by the control software and corresponded to the local maximum of the first derivative of measured fluorescence versus temperature.

[6] = Thermal shift assay: CggR-FBP affinity constants (KD) from melting curves; format: binding; details: for KD ratio change (KD of the CggR mutant variant / KD of the wild type) / KD ratio change: desired/undesired sign: Fig 5D; for Obtained effects on affinity for FBP: classification based on thermal shift assays; as to KD ratio change: desired/undesired sign: key: +: A plus sign indicates desired characteristics achieved in the mutants; -: a minus sign indicates undesired effects of the mutations
Description: as §1

[7] = KD for FBP relative to wild type CggR (1 mM)

Molecule: CggR operator duplex (CggRO)
binding signal (% of CggR remaining bound vs 0 mM FBP) [1]: 30
binding signal (% of CggR remaining bound vs 0 mM FBP) [2]: 30

B1: T151S: CggR mutant, position 151 Thr to Ser, at the CggR-FBP-binding site (protein, UniProt O32253 1-340, looked up, variant T151S)
Central glycolytic genes …: T1 sequence (O32253 1-340) with T151S
Obtained effects on DNA binding affinity [4]: No effect
DNA binding affinity: desired/undesired sign [4]: +
DNA binding affinity [4]: Same range
Obtained effects on stability [5]: No effect
Protein stability: desired/undesired sign [5]: +
Protein stability [5]: Same range
KD ratio change (KD of the CggR mutant variant / KD of the wild type) [6]: 0.90
KD ratio change: desired/undesired sign [6]: -
fold lower KD than wild type [6, 7]: 1.1 fold
Obtained effects on affinity for FBP [6]: mild affinity increase

B2: T152S: CggR mutant, position 152 Thr to Ser, at the CggR-FBP-binding site (protein, UniProt O32253 1-340, looked up, variant T152S)
Central glycolytic genes …: T1 sequence (O32253 1-340) with T152S
Obtained effects on DNA binding affinity [4]: No effect
DNA binding affinity: desired/undesired sign [4]: +
DNA binding affinity [4]: Same range
Obtained effects on stability [5]: No effect
Protein stability: desired/undesired sign [5]: +
Protein stability [5]: Same range
KD ratio change (KD of the CggR mutant variant / KD of the wild type) [6]: 0.62
KD ratio change: desired/undesired sign [6]: -
fold lower KD than wild type [6, 7]: 1.6 fold

B4: R175K: CggR mutant, position 175 Arg to Lys, at the CggR-FBP-binding site (protein, UniProt O32253 1-340, looked up, variant R175K)
Central glycolytic genes …: T1 sequence (O32253 1-340) with R175K
Obtained effects on DNA binding affinity [4]: Disrupted affinity
CggR binding to DNA in the absence of FBP [4]: did not bind to the DNA anymore
DNA binding affinity: desired/undesired sign [4]: -
DNA binding affinity [4]: No binding
Obtained effects on stability [5]: No effect
Protein stability: desired/undesired sign [5]: +
Protein stability [5]: Same range
KD ratio change (KD of the CggR mutant variant / KD of the wild type) [6]: 0.98
KD ratio change: desired/undesired sign [6]: -
Obtained effects on affinity for FBP [6]: negligible affinity increase

B6: T151V: CggR mutant, position 151 Thr to Val, at the CggR-FBP-binding site (protein, UniProt O32253 1-340, looked up, variant T151V)
Central glycolytic genes …: T1 sequence (O32253 1-340) with T151V
Obtained effects on DNA binding affinity [4]: Reduced affinity
CggR binding to DNA in the absence of FBP [4]: only bound with lower affinity
DNA binding affinity: desired/undesired sign [4]: -
DNA binding affinity [4]: Reduced
Obtained effects on stability [5]: Strong decrease
Protein stability [5]: Very low
KD ratio change (KD of the CggR mutant variant / KD of the wild type) [6]: 2.59
KD ratio change: desired/undesired sign [6]: +
fold increase of KD over wild type [6, 7]: 2.6 fold
Obtained effects on affinity for FBP [6]: strong affinity decrease

Further lines, with some results ahead:

Kd [3]: 1000 µM
Molecule: O=P(O)(O)OC[C@H]1OC(O)(COP(=O)(O)O)[C@@H](O)[C@@H]1O (stereo partly shown) [FBP, fructose-1,6-bisphosphate]

Obtained effects on DNA binding affinity [4]: No effect
CggR binding to DNA in the absence of FBP [4]: similar
CggR remained bound to DNA at high FBP levels ([4]; 20 mM FBP relative to bound fraction at 0 mM FBP): around 30%
DNA binding affinity: desired/undesired sign [4]: +
DNA binding affinity [4]: Same range
KD ratio change (KD of the CggR mutant variant / KD of the wild type) [6]: 1.52
KD ratio change: desired/undesired sign [6]: +
B3: R250A: CggR mutant, position 250 Arg to Ala; selected for the glycolytic flux biosensor (protein, UniProt O32253 1-340, looked up, variant R250A)
Central glycolytic genes …: T1 sequence (O32253 1-340) with R250A
Obtained effects on stability [5]: No effect
Protein stability [5]: Same range
Obtained effects on affinity for FBP [6]: desired decrease in FBP affinity; also recorded: strong affinity decrease

Obtained effects on DNA binding affinity [4]: Disrupted affinity
CggR binding to DNA in the absence of FBP [4]: did not bind to the DNA anymore
DNA binding affinity: desired/undesired sign [4]: -
DNA binding affinity [4]: No binding
KD ratio change (KD of the CggR mutant variant / KD of the wild type) [6]: 0.79
KD ratio change: desired/undesired sign [6]: -
Obtained effects on affinity for FBP [6]: mild affinity increase
B5: E269Q: CggR mutant, position 269 Glu to Gln, at the CggR-FBP-binding site (protein, UniProt O32253 1-340, looked up, variant E269Q)
Central glycolytic genes …: T1 sequence (O32253 1-340) with E269Q
Obtained effects on stability [5]: Strong decrease
Protein stability [5]: Very low

— article PMC6920703, “Measuring glycolytic flux in single yeast cells with an orthogonal synthetic biosensor” (Molecular Systems Biology, 2019)
